Molecular target: T1, Nfluc416-WASP (human, UniProt P42768 220-288)
T1 sequence (looked up): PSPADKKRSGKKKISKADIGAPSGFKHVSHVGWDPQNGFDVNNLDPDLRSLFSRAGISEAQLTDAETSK
Assay: split reporter (BiFC, NanoBiT); bimolecular luminescence complementation (split firefly luciferase) in living HEK 293 cells, 24 h after transient cotransfection of the pair (50 ng/well) with pRL-tk; D-luciferin 150 ug/ml; IVIS CCD camera; ratio FL at 600 nm to RL at 500 nm; wild-type pairs also with co-expressed GEF or GAP catalytic domains
Conditions: partners not purified

B1: Cfluc398-CDC42(G12V) (natural protein)
chain: not shown
luminescence signal, fold of the active mutant over the wild type: 2.77 fold
reconstituted luminescence (FL/RL), fold over CDC42 F37A: 14.3 fold
reconstituted luminescence (FL/RL), fold over CDC42 T17N: 5.6 fold
reconstituted luminescence (FL/RL), fold over CDC42 WT: 2.7 fold
